In publication PMC3852207 one finds Kd data, which are given here for 5 substances.

One experiment concerns the target Q61L Rac1·[3H]GTP (UniProt P63000). The experiment is described as follows: scintillation proximity assay (competition); competitor titrated into 30 nM [3H]GTP·Rac1 or [3H]GTP·Cdc42 and 30 nM GST-p50 RhoGAP immobilised on fluoromicrospheres via an anti-GST antibody; partial competition model for RLIP76 GAP and didomain, full competition for GAP insert and free p50 RhoGAP.

Another experiment addresses Q61L Cdc42·[3H]GTP (UniProt P60953). The description is as above.
In the next experiment the target is Cdc42 (Homo sapiens) (UniProt P60953). The settings on record: cited from earlier work.
Sequence of Cdc42 (Homo sapiens) (P60953 1-188): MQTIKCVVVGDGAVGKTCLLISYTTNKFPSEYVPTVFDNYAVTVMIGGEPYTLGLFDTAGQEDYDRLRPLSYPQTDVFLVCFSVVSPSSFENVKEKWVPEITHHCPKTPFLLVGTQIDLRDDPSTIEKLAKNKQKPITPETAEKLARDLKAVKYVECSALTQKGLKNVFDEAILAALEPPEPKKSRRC
Another experiment concerns the target Rac1 (Homo sapiens) (UniProt P63000). To be noted: cited from earlier work.
Another experiment concerns the target GST-p50 RhoGAP. Nature of the experiment: scintillation proximity assay (direct); GST-p50 RhoGAP on SPA beads; [3H]GTP·Cdc42 or [3H]GTP·Rac1 in solution; values used as fixed Kd in the competition fits.

Sequence of Q61L Cdc42·[3H]GTP (P60953 whole entry Q61L): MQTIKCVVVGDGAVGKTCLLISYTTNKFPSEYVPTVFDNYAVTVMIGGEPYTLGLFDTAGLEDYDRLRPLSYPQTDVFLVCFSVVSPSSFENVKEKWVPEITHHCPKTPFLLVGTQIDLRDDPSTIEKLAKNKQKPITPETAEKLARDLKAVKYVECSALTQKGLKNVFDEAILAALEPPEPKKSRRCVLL

In the case of “His-RLIP76 GAP domain (residues 184-380) (from UniProt Q15311 184-380) (domain or fragment)”, the Kd with Q61L Rac1·[3H]GTP was determined as 1.68 µM; with Q61L Cdc42·[3H]GTP, 6.19 µM.

In the case of “untagged p50 RhoGAP (domain or fragment)”, the Kd in the experiment with Q61L Rac1·[3H]GTP was 0.15 µM; with Q61L Cdc42·[3H]GTP it was 0.247 µM.

“His-RLIP76 GAP-GBD didomain (residues 184-446) (from UniProt Q15311 184-446) (domain or fragment)”: the Kd in the experiment with Q61L Rac1·[3H]GTP is 2.34 µM; with Q61L Cdc42·[3H]GTP, 5.59 µM.

As for p50 RhoGAP (from UniProt Q07960), the values for the Kd with Cdc42 (Homo sapiens) and in the experiment with Rac1 (Homo sapiens) were 0.024 µM and 0.018 µM, respectively.

With “Q61L Cdc42·[3H]GTP (from UniProt P60953 1-191) (natural protein)”, the Kd with GST-p50 RhoGAP was 0.08 µM.
